# Test results published in article doi:10.1101/2023.05.29.542777.
# Experiments:
# Test in all cases: co-IP
# [1] = target: TbTim10-2X-Myc (T. brucei)
# [2] = target: TbTim13-3X-HA (T. brucei)
# [3] = target: TbTim9-3X-HA (T. brucei)
# [4] = target: TbTim10-3X-HA (T. brucei)
# [5] = target: TbTim12-3X-HA (T. brucei)
# [6] = target: TbTim8/13-3X-HA (T. brucei)
substance,measurement,setting,value
TbTim8/13-3X-HA (natural protein),percent of the input co-precipitated (% of the input),[1],45
TbTim9-3X-HA (natural protein),percent of the input co-precipitated (% of the input),[1],35
TbTim10-2X-Myc (natural protein),percent of the input co-precipitated,[2],< 10%
same,percent of the input co-precipitated (% of the input),[3],60
same,percent of the input co-precipitated,[4],< 10%
same,percent of the input co-precipitated,[5],< 10%
same,percent of the input co-precipitated (% of the input),[6],60
TbTim10-3X-HA (natural protein),percent of the input co-precipitated (% of the input),[1],30
TbTim12-3X-HA (natural protein),percent of the input co-precipitated (% of the input),[1],25
